The series can be described thus: yeast display, Sf9 membrane polyspecificity reagent, FACS + sequencing; frameworks hold sequencing errors. In outline: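 Sorting gates, low and high (top ~1%), were placed on anti-HA fluorescence to track expression and on streptavidin fluorescence to track reagent binding. A clone's polyreactivity label is taken from the gate it came out of. The reagent was 10% biotinylated, detergent-solubilized Sf9 membrane, applied for 1 hour at 4 °C to galactose-induced yeast display cells.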
Take “QVQLVESGGGIVEAGGSLRLSCAASGRIFNQYAMGWYRQAPGKEREFVAAIRWSGGRTYYADSVKGRFTISRDNAKNTVYLQMNRLKPEDTAVYYCAADLYGNNYWDGTTGYDYWGQGTQVTVSS”: the “polyreactivity (PSR sort gate)” value was “low polyreactivity”.

For the sequence “QVQLVESGGGLVQAGGSLRLSCAASGSIFDVNTMGWYRQAPGKERELVASITSSGSTYYADSVKGRFTISRDNAKNTVYLQMNSLKPEDTAVYYCAAASGGTVVGEGDYWGQGSQVTVSS”, the “polyreactivity (PSR sort gate)” value is recorded as “low polyreactivity”.

With “QVQLVESGGGLVQAGGSLRLSCAASGSIFYWYALGWYRQAPGKERELVAAITYSGDRTYYADSVKGRFTISRDNAKNTVYLQMNSLKPEVTAVYYCAKDRGSGPLDYWGQGTQVTVSS”, the “polyreactivity (PSR sort gate)” value is given as “low polyreactivity”.

“QVKLVESGRGLVQAGGSLRISCDASGSIFYYYAMGWYRQAPGKERELVAAINGGDTNYADSVKGRFTISRDNAKNTVYLQMTSLKPEDTAVYYCAAEGVTVEWDYDYWGQATQVTVSS”: the “polyreactivity (PSR sort gate)” value is on record as “low polyreactivity”.

On to “QVQLVESGGGLVQAGGSLRLSCAASGRIFPYNVMGWYRPATGKERELVAAISWSGGRTYYADSVKGRFTISRDNAKNTVYLQMISLKPEDTAVYYCNTRTLVAMGYWGQGTQVTVSS”, for which the “polyreactivity (PSR sort gate)” value was “high polyreactivity”.

For “QFQLVESVGGLVQAGGSLRLSCAASGFTFTAYAMGWYRQAPGTERELVAAISSGGSTYYADSVKGRFTISRDNAKNTVYLQMNSLKPEDTAVYYCAAVGVYTVKREYWGQGTQVTVSS”, the “polyreactivity (PSR sort gate)” value was “low polyreactivity”.

Consider “QVQLVESGGGLVQAGGSLRLSCAASGSTFAYYAMGWYRQAPGKERELVAAITWSGGRTYYADSVKGRFTISRDNAKNTVYLQMNSLKPEDTAVYYCAAGQQHSLFRVPQYRNRAFYYWGQGTQVTVSS”, for which the “polyreactivity (PSR sort gate)” value is reported as “high polyreactivity”.

Consider “QVQLVESGGGLVQAGGSLRLSCAASGRTIRNNAMGWYRQAPGKERDLVASITRSGGSTYYADSVKGRFTISRDNANNSVSLQLNSLKPEDTSVFYCNRVAHSLTYPTDHEFNYWGQGTQVTVSS”, for which the “polyreactivity (PSR sort gate)” value is on record as “high polyreactivity”.

In the case of “QVQLVESGGGLVQAGGSLRLSCAASGFTLAWNAMGWYRQAPGKERELVATISRSGSSTSYADSVKGRFTISRDTAKNTVYLQMNSLKPEDTAVYYCAADRYTVRMDYWGQGTQVTVSS”, the “polyreactivity (PSR sort gate)” value was “high polyreactivity”.

As to “QVQLVESGGGLVQAGGSLRLSCAASGSTFPRYAMGWYRQAPGKERELVADISSGGSTYYADSVKGRFTISRDNAKNTVYLQMNSLKPEDTAVYYCNARRSRSRYDYWGQGTQVTVSS”, the “polyreactivity (PSR sort gate)” value is recorded as “high polyreactivity”.

Turning to “QVHHVESGGVLVKAGGSLRLSCAASGRTIYAYAMGWYRQAPGQESELVAAITSGASTYYADSVKGRFTISRDNAKNTVYLQMNSLKPEDTGVYYCAKRVRYYKPGYDYWGLGTQVTVSS”, the “polyreactivity (PSR sort gate)” value is reported as “low polyreactivity”.

“QVQLVESGGGLVQAGGSLSLSCAASGRTFKYYAMGWYRQAPGKERELVATITWSGTSTNYADSVKGRFTISRDNEKHTVYLQMNSLKPEDTAVYYCAARSKRRNYDYWGQGTQVTVSS”: the “polyreactivity (PSR sort gate)” value is on record as “high polyreactivity”.

Turning to “QVQLVESGGGLVQAGGSLRLSCAASGRTFTGNAMGWYRPAPGKERELVADNNLSGGDTYYADSVKGRFTISRDNAKNTVYLQMNSLKPEDTAVYYCNARVRDKRTGRYGYWGQGTQVTVSS”, the “polyreactivity (PSR sort gate)” value is on record as “high polyreactivity”.

Turning to “QVQHVESGGGLVQAGGSLRLSCAATGRTFRHYAMGWYRLAPGKERELVAAISGSGGRTYYADSVKGRFTISRDNAKNTVYLQMISLKPEDTAVYYCNAYTWTYGEYEYWGQGTQVTVSS”, the “polyreactivity (PSR sort gate)” value was “high polyreactivity”.

Turning to “QVQLVESGGGLVQAGGSLRLSCAASGFTFGGYAMGWYRQAPGKERELVAAISQSGGRTYYADSVKGRFTISRDHAMNTVDLQMISLKPEDTAVYYCAKPSTTYYQRGDYWGQGTQVTVSS”, the “polyreactivity (PSR sort gate)” value is recorded as “high polyreactivity”.

For “QVQLQESGGGLVKAGGDLRLSCAASGNIFRDYIMGWYRQAPGKEREFVAGIDRGANTNYADSVKGRFTISRDNAKNTVYLQMNSLKPVDTAVYYCGVHTAIVPDFIYWGQGTQVTVSS”, the “polyreactivity (PSR sort gate)” value is on record as “low polyreactivity”.

For “QVQLVESGGGLVQAGGSLRLSCAASGRTFSYYAMGWYRKAPGKERELVASISGGGRTNYADSVKGRFTISRDNAKNTVYLQMNSLKPEDTAVYYCAARYLITRQYKRGYWGQGTQVTVSS”, the “polyreactivity (PSR sort gate)” value is listed as “high polyreactivity”.

Turning to “QVQLVESGGGLVQAGGSLSLSCAATGRTFYHYVMGWYRQAPGKERELVAAISVSGGRTYYADSVKGRFTISRDNAKNTVYLQMNSLKPEDTAVYYCNARYGHRVRKEAGLSYYWGQGTQVTVSS”, the “polyreactivity (PSR sort gate)” value was “high polyreactivity”.

With “QVQLVESGGGLVQAGGSLRLSCAASGSTLRFYAMGWYRQAAGKERELVADITYRGGSTYYADSVKGRFTISRDNAKNTVYLQMNSLKPEDTAVDYCAKQRSYSSKFDYWGQGSQVTVSS”, the “polyreactivity (PSR sort gate)” value is on record as “high polyreactivity”.

Take “QVQLVESGGGLVQAGGSLRLSCAASGRTSFHYAMGWYRQAPGKERELVAAINWNGGRTYYADSVKGRFTISRDNAKNTVYLQMNSLKPEDTAVYYCAARLSYLGGYDYWGQGTQVTVSS”: the “polyreactivity (PSR sort gate)” value is “high polyreactivity”.

With “QVQLVESGGGLVQAGGSLRLSCAASGITFLYYAMGWYRQAPGKERELVAGISGTGGRTYYADSVKGRFTISRDNAKNTVYLQMNSLKPEDTAVYYCAARRTTWGYGYWGQGTQVTVSS”, the “polyreactivity (PSR sort gate)” value is recorded as “high polyreactivity”.

Regarding “QVQLVESGGGLVQAGGSLRLSCAASGSTFDPNALGWYRQAPGKERELVAAISYTGGRTYYADSVKGRFTISRDNAKNTVYLQMNSLKPEDTAVYYCAVLVVGSTTQDEPYFSGVEHDYWGQGTQVTVSS”, the “polyreactivity (PSR sort gate)” value is “low polyreactivity”.

With “QVQLVESGGGLVQAGGSLRLSCAASGSTFSGYAMGWYRQAPGKERELVAAITSSGGRTYYADSVKGRFTISRDNAKNTVYLQMNSLKPEDTAVYYCAALYYHEYDYWGQGTQVTVSS”, the “polyreactivity (PSR sort gate)” value is “low polyreactivity”.

On to “QVQLVESGGGLVQAGGSLRLSCAASGRIFGANAMGWYRQAPGKERELVAAISYSGSRTYYADSVKGRFTISRDNAKNTVYLQMNSLKPEDTAVYYCNTGIAGRRSGYRTDSDYWGQGTQVTVSS”, for which the “polyreactivity (PSR sort gate)” value is “high polyreactivity”.

“QVQLEDSGGGLVQAGGSLRLSCAASGRIFGKYAMGWYRQAPGKERELVAAISYSGGRTYYADSVKGRFTISRDNAKNTVYLQMNSLTPEDTAVYYCAAVYHGINSYDYDYSGQGTQVTVSS”: the “polyreactivity (PSR sort gate)” value is recorded as “high polyreactivity”.

Turning to “QVQLVESGGGLVQAGGSLRLSCAASGRTIRGYAMGWYRQAPGKEREFVASITWNSVSTSYADSVKGRFTISRDNAKNTVYLQMNSLKPEDTAVYYCNRRTGSYGRTPVGKGEYYYWGQGTQVTVSS”, the “polyreactivity (PSR sort gate)” value is on record as “high polyreactivity”.

With “QVQLVESGGGLVQAGGSLRLSCAASGSTFNDYDMGWYRQAPGNERELVAAISSGGSTYYADSVKGRFTISRDNAKNTVYLQMNSLKPEDTAVYYCAAVLGVWGGVGSEGDFWGQGTQVTVSS”, the “polyreactivity (PSR sort gate)” value is given as “low polyreactivity”.

As to “QVQLVESGGGLVQAGGSLRLSCAASGSTSQRNAMGWYRQAPGKERELVAGITTSGGRTYYADSVKGRFTISRDNAKNTVYLQMNSLKPEDTAVYYCAARTQIWKYRGYYSWGQGTQVTVSS”, the “polyreactivity (PSR sort gate)” value is on record as “high polyreactivity”.

Turning to “QVQLVESGGGLVQAGGSLRLSCVPSARTFYVYAMGWYRQSPGKQSELVAAIDYSGGDTYYADSVKGRFTISRDNAKNTVYLQMNSLKPVDTAVYYCAAEEYIPIYRYDYEYWGQGTQVTVSS”, the “polyreactivity (PSR sort gate)” value was “high polyreactivity”.

Regarding “QVQLVESGGALVQAGGSLRLSCAASGRIFGVNAIGWYRQAPGKERELVADISSGGSTNYADSVKGRFTISRDNAKNTVYLQMNSLKPEDTAVYYCAARTLRAGYRASGVRRDYWGQGTQVTVSS”, the “polyreactivity (PSR sort gate)” value was “high polyreactivity”.

Consider “QVQLVESVGGLVQAGGSLRLSCAASGRTFYFYAMGWYRQAPGKERELVAAITSGDTTHYADSVKGRFTISRDNAKNTVYLQMNSLKPDDTAVYYCAADKFKKISGYQRRSNYWGQGTQVTVSS”, for which the “polyreactivity (PSR sort gate)” value is “low polyreactivity”.

Take “QVQLVESGGGLVQAGGSLRLSCAASGRTFRFYAMGWYRQAPGKEREFVAAISRCVGSTYYADSVKGRFTISRDNAKNNVYLQMNSLKPEDTAVYYCNADYRSRYVEYDYWGQGTQVTVSS”: the “polyreactivity (PSR sort gate)” value is on record as “high polyreactivity”.

In the case of “QVQLVESGGGLVQEGGSLRLSCAASGRIFKPYVMGWYRQAPGKERELVAAISWSGGASTYYADSVKGRFTISRENAKNTVYLQMNSLKPEDTAVYYCNAAKRNRYDYWGQGTQVTVSS”, the “polyreactivity (PSR sort gate)” value is on record as “low polyreactivity”.

“QVQLVESGGGLVQAGGSLRFSCAASGSIFFNNAMGWYRQAPGKERELVAAITTGGSTYYADSVKGRFTISRDNAKNTVYLQMNSLKPEDTAVYYCAAVVVYPYRLGYDYWGQGTQVTVSS”: the “polyreactivity (PSR sort gate)” value was “low polyreactivity”.

Consider “QVQLVESGGGLVQAGGSLRLSCAASGSIFSSYAMGWYRQAPGKERELVAAITRRGGSTYYADSVKGRFTISRDNAKNTVYLQMNSLKPEDTAVYYCATGITARSRYGYWGQGTQVTVSS”, for which the “polyreactivity (PSR sort gate)” value is listed as “high polyreactivity”.

Regarding “QVQLVDSGGGLVQAGGSLRLSCAASGRIFRPYAMGWYREAPRKERELVAAISFSGGSTYYADSVKGRFTISRDNAKNTVYLQMNSVKPEDTAVYYCNAVFINKYGKYGDWGQGTQVTVSS”, the “polyreactivity (PSR sort gate)” value is “high polyreactivity”.

For the sequence “QVQLVESGGGLVQAGGSLRLSCAASGRILLRNVMGWYRQAPGKERELVAVITRTGITYYADSVKGRFTISRDNAKNTVYLQMNSLKPEDTAVYYCAAGLPKYEHDYWGQGTQVNVSS”, the “polyreactivity (PSR sort gate)” value is on record as “low polyreactivity”.

For the sequence “QVQLVESGGGLVQAGGILRLSCAASGFTFGWNAMGWYRQAPGKERELVAAITSGGITNYADSVKGRFTISRDNAKNTVYLQMNSLKPEDTAVYYCNARPTSRRSWYYWKGYDYWGQGTQVTVSS”, the “polyreactivity (PSR sort gate)” value is reported as “high polyreactivity”.

As to “QVQLVESGGGLVQAGGSLRLSCAASGRIFRVYAMGWYRQAPGKERELVAAISSGGSTNYADSVKGRFTISRDNAKNTVYLQMNSLKPEDTAVYYCAATVRGVGYRYYYWGQGTQVTVSS”, the “polyreactivity (PSR sort gate)” value was “high polyreactivity”.

As for “QVQLVESGGGLVQAGGSLRLSCAASGLICGFYAMGWYRQAPGKERELVADITTSGARTYYADSVKGRFTISRDNAKNTVYLQMYSLKPEDTAVYYCNKDHSSYGASGYDYWGQGTQVTVSS”, the “polyreactivity (PSR sort gate)” value is listed as “low polyreactivity”.

“QVQLVESGGGLVQAGGSLRLSCAASGRIFRRYAMGWYRQAPGKERELVAAISSGGGSTYYADSVKGRFTISRDNAKNTVYLQMNSLKPEDTAVYYCNTDFYYDDVSQAHDYWGQGTQVTVSS”: the “polyreactivity (PSR sort gate)” value is reported as “high polyreactivity”.

Values taken from the nanobody polyreactivity screen of Harvey et al. (2022).
